{"source": "patent US20030118546A1", "about": "(Human Genome Sciences, published 2003)", "binders": {"B1": {"name": "TRID-Fc (soluble extracellular ligand binding domain of TRID fused to the Fc portion of human immunoglobulin (IgG)) (Fc fusion)", "chain": "TTARQEEVPQQTVAPQQQRHSFKGEECPAGSHRSEHTGACNPCTEGVDYTNASNNEPSCFPCTVCKSDQKHKSSCTMTRDTVCQCKEGTFRNENSPEMCRKCSRCPSGEVQVSNCTSWDDIQCVEEFGANATVETPAAEETMNTSPGTPAPAAEETMNTSPGTPAPAAEETMTTSPGTPAPAAEETMTTSPGTPAPAAEETMTTSPGTPASSHY", "notes": "The extracellular domain is only predicted ('about 27 to about 240'); preparation is said to follow Pan et al., Science 276:111 (1997); also called Fc-extracellular domain of TRID; TNFR-5; not shown: Fc portion of human immunoglobulin (IgG)"}}, "target": "T1, TNFα (tumor necrosis factor alpha), soluble (UniProt P01375 77-233)", "T1 construct": "also called TNFa; TNF-alpha", "T1 sequence (P01375 77-233 limits assumed)": "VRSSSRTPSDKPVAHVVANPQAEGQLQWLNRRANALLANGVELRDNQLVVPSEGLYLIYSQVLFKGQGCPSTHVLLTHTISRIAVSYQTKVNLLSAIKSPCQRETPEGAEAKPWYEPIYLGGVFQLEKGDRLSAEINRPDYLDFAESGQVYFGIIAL", "experiment": "co-precipitation with protein G-Sepharose, immunoblot with anti-Flag or anti-myc-HRP", "description": "The respective Fc-fusions were precipitated with protein G-Sepharose and co-precipitated soluble ligands were detected by immunoblotting with anti-Flag (Babco) or anti-myc-HRP (BMB)."}
{"binder": "B1", "values": [{"measurement": "binding result", "value": "no binding"}]}
